Data: paper PMC6340890, “Transcriptional mechanism of IRF8 and PU.1 governs microglial activation in neurodegenerative condition”

Legend:
IRF8;PU.1 [1] = target: T1, IRF8;PU.1 (Mus musculus;Mus musculus, UniProt P23611;P17433 1-424;1-272, |); assay: EMSA; synergistic; supershifted by anti-IRF8 and by anti-PU.1, not by control IgG; LightShift Chemiluminescent EMSA Kit; buffer, salt and pH not stated; supershift incubation 4 °C, 20 min; conditions: protein: recombinant;recombinant; tags: Flag;Flag; copies: 1;1; label: 5'-biotin (both strands)
IRF8;PU.1 [2] = target: T1, IRF8;PU.1; assay: EMSA; synergistic; LightShift Chemiluminescent EMSA Kit; buffer, salt and pH not stated; supershift incubation 4 °C, 20 min; conditions: protein: recombinant;recombinant; tags: Flag;Flag; copies: 1;1; label: 5'-biotin (both strands)

T1 sequence (P23611 whole entry, chain 1 of 2, other chains not shown): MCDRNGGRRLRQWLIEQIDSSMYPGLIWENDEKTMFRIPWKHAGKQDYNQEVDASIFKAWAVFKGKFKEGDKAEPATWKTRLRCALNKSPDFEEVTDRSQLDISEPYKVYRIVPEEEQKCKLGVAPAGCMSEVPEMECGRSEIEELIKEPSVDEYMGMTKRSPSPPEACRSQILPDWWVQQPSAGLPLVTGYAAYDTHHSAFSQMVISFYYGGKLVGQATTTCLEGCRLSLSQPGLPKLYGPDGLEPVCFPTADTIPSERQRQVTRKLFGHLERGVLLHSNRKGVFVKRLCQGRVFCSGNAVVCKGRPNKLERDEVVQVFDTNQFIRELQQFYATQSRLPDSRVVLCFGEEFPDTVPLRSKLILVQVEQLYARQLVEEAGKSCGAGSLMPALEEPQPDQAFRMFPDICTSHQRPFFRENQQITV

B1: Ripk2 probe (dsDNA)
DNA 1: ACAGTCTTACTTTCACTTCCTGAATTCATT
DNA 2: AATGAATTCAGGAAGTGAAAGTAAGACTGT
B1: binds (IRF8;PU.1 [1]).

B2: Tak1 probe (dsDNA)
DNA 1: CCTTCCATGGTTTCAGTTCCTCTTAAGGGA
DNA 2: TCCCTTAAGAGGAACTGAAACCATGGAAGG
B2: binds (IRF8;PU.1 [1]).

B3: Ikbkb probe (dsDNA)
DNA 1: CCGTCCTCAGTTTCACTTCCTGTCAGTGCT
DNA 2: AGCACTGACAGGAAGTGAAACTGAGGACGG
B3: binds (IRF8;PU.1 [2]).

B4: Nfkb1 probe (dsDNA)
DNA 1: TCCCCCCTGGTTTCCCTTCCTGTAAATACA
DNA 2: TGTATTTACAGGAAGGGAAACCAGGGGGGA
B4: binds (IRF8;PU.1 [2]).
